# Laboratory results as given in the DeepSol protein solubility set.
# Assay: soluble on expression in E. coli; label from the status in PepcDB or PDB records
row,Sequence,soluble on expression in E. coli
1,MDDQGGTRPDLLSLKPTAVPRLPLVLLARSRLVAKLDDTADTVLICAPAGYGKTLLLSQWLEDQAHKVAWLSPNQHNREALWPAMLQALRRSPAIPPGALRQFSGDEEDAVEVLGDLAQELASTGTSVRLVIDGVDGFSSDERERWIPALLNQSGPPIQLALVARDSTAVDAGPARLSGRIVELRSSDLAFSLEEINVLAAKTTTL,not soluble
2,MTGAVCPGSFDPVTLGHVDIFERAAAQFDEVVVAILVNPAKTGMFDLDERIAMVKESTTHLPNLRVQVGHGLVVDFVRSCGMTAIVKGLRTGTDFEYELQMAQMNKHIAGVDTFFVATAPRYSFVSSSLAKEVAMLGGDVSELLPEPVNRRLRDRLNTERT,not soluble
3,SENVGKKYFMSSVRRMPLNRAKALCSELQGTVATPRNAEENRAIQNVAKDVAFLGITDQRTENVFEDLTGNRVRYTNWNEGEPNNVGSGENCVVLLTNGKWNDVPCSDSFLVVCEFSD,soluble
4,MGSDKIHHHHHHMEKVIYIVWRDPSTKPETFAHDLRTKLAQQLLQLGARGVQINVQDEDVAPAAALRQVNTLPQMDGLVSVWVDSAITSLRRPFDDAVLAATGRMAGYLVTESQPIRNTRHPARAGERTPGFSQLAFLKRPPRLTHEAWLDTWHNRHTQVAIDTQDTFLYVQNVVVRALTYGAPPLDAVVEEGFPEAAMTDPQAFFDAPGDEAKYQRNLAAMMESCQRFIDFDKIDVVASSQYIVRPPAA,not soluble
5,MRPKVGVLLKMKREALEELKKYADVEIILYPSGEELKGVIGRFDGIIVSPTTKITREVLENAERLKVISCHSAGYDNIDLEEATKRGIYVTKVSGLLSEAVAEFTVGLIINLMRKIHYADKFIRRGEWESHAKIWTGFKRIESLYGKKVGILGMGAIGKAIARRLIPFGVKLYYWSRHRKVNVEKELKARYMDIDELLEKSDIVILALPLTRDTYHIINEERVKKLEGKYLVNIGRGALVDEKAVTEAIKQGKLKGYATDVFEKEPVREHELFKYEWETVLTPHYAGLALEAQEDVGFRAVENLLKVLRGEVPEDLVNKEVLEVRPIENVKML,soluble
6,MGHHHHHHSHMEKCSVGGLELTEQTPALLGNMAMATSLMDIGDSFGHPACPLVSRSRNSPVEDDDDDDDVVFIESIQPPSISAPAIADQRNFIFASSKNEKPQGNYSVIPPSSRDLASQKGNISETIVIDDEEDIETNGGAEKKSSCFIEWGLPGTKNKTNDLDFSTSSLSRSKTKTGVRPFNPGRMNVAGDLFQNGEFATHHSPEMHLQRRLMSFFQ,soluble
7,SEKEKGNDDGIPDQENSLDFSEHFNQLELLETHGHLIPTGTQSLWVGNSDEDEEQDDKNEEWYRLQEKKMEKDPSRLLLWAAEKNRLTTVRRLLSEKATHVNTRDEDEYTPLHRAAYSGHLDIVQELIAQGADVHAVTVDGWTPLHSACKWNNTRVASFLLQHDADINAQTKGLLTPLHLAAGNRDSKDTLELLLMNRYVKPGLKNNLEETAFDIARRTSIYHYLFEIVEGCTNSSPQS,soluble
8,MTTVTVTTEVPSSGKTEDGHVFCDSSSAHIIEETEYVRQMRTTLEKIRNHMFKEKEGCGNARHKLDAEGSGNIQNGSDSTTDPTCLDLLMENMRRKDQQLLEMNRENEVLQIKLEASREAGAAALRNVAQRLFDNYQTQAGDLEKKHEGRKHLLQVNNLEKEQALKGSAESLNLLSEKLEEKHGQIVGLENRVQRMENNKELKTRVAHWTETPRTLVSKAVSTSELKTEGASPYLMLIRLRK,not soluble
9,SDPATCPIIPGCETTIEISKGRTGLGLSIVGGSDTLLGAIIIHEVYEEGAACKDGRLWAGDQILEVNGIDLRKATHDEAINVLRQTPQRVRLTLYRDEAPYKEEEVCDTLTIELQKKPGKGLGLSIVGKRNDTGVFVSDIVKGGIADADGRLMQGDQILMVNGEDVRNATQEAVAALLKCSLGTVTLEVGRIKAGPFHSERRPSQSSQVSEGSLSSFTFPLSGSSTSESLESSSKKNALASEIQGLRTVEMKKGPTDSLGISIAGGVGSPLGDVPIFIAMMHPTGVAAQTQKLRVGDRIVTICGTSTEGMTHTQAVNLLKNASGSIEMQVVAGGDVSVVTGHQQEPASSSLSFTGLTSSSIFQDDLGPPQCKSITLERGPDGLGFSIVGGYGSPHGDLPIYVKTVFAKGAASEDGRLKRGDQIIAVNGQSLEGVTHEEAVAILKRTKGTVTLMVLS,soluble
10,MYDVVGVRFKKAGKVYYFDPNQFDISENEFVIVETVRGIEYGKVVITKKQVDENDVVLPLKKVIRIANENDRTIVEENKHAAKEAYQVCQQKVVEHNLDMKLVDVEYTFDRNKIIFYFTADGRIDFRELVKDLAAIFRTRIELRQIGVRDEAKMLGGIGPCGRMLCCSTFLGDFEPVSIKMAKDQNLSLNPAKISGLCGRLMCCLKYENDEYEAAKEQLPDLDQRIQTPHGTGRVIGLNILERLIQVELVDKERIVEYTLDELVNKGVVSSQTTDLEHHHHHH,not soluble
11,MSSLFVVGIGPGSNDLMTPQASLAIERSEYVIGFSLYVSFIKEKFPNKIYISNGMQGEIERAKKAIELARSGHNVSIISSGDAGIYGIAGAVFEILSTLEDNMPEVSVVPGIS,soluble
12,MAHHHHHHMLRRNIRLRKEYLYLKKVEDEKKKYAEKIKSIKESYDKNKKIRGDLKDEESELRKNMNLYDEKSFDRKVDDEYFFCGLENPRVLITTSRNPSSTLENFAKELKLIIPNSEKINRGSYFIKDILNFARKNNITDVIILHEYKGIPRNLIICHLPFGPTLFCTIKDCKMRCEFNEKIDNISLCTPHLIFHNFHSDLGKRIMNIFKYLFPPVTMRTNKRKMPKHNSQIVKDNKLNKNININTNNNDTNQMDQMDQMNKIKFVTHTTQDDEDNNDHLQIYFKNNEYLNLQKYENNRVIVFFNKNDIIYFRHYNWEKNQTNEIVLKEIGPRFSFVVYKINKETLDSLNEDYEYIYRPFMNSRKALLT,not soluble
13,MGSDKIHHHHHHMTQTQPKFLTIYNTLYKEIQIGKYPSGHALPTEKELCARFDVSRMTLRQAIKLLAEDGIVESTRGKGHFVIPQTNAQHASSMDQFKHPLDQILLARVSMSSINYRVDLESEYTNHLFANHPSAVIAMERYYQKKDNHSKQADAFCFTFIPLNVIDTFKVNTQNEDDMKTFVEQTIYSNAYQSDLKMSITKAPRFKNHSHVFDGDTHCWLIIETLYAQTPYPIMINKWYIPQEISELTLTRIRQSDY,not soluble
14,FGQYLAIRRTDALLRQQLDTLTIDTLSELEGKLPVKSNSLVIAYIRRVLESKDRPAHVQRLLADFEITADKDLAISKTLTKMGP,not soluble
15,NENFRWKTAVNMSMNRNKVVSLHKDYKSFRYGSEGFSMAYDMWVKEGGKLGDIYGNGFERDENGKIKLNETGNPIKVTGNNTLLGNANPDALLGWSNTFTYKGFTLYFLIDARIGGDVMSLTQAHLDAMGVSKESGESRDRGYVEYEGIQFKDVPNFYGTVGGRNGISEYYMYDATNVRLRELTLGYSFPETLLAKTKFIKGLDLTLVARNLFFLYKDAPFDPDATLSVGNTLQGVDVFGMPTTRNIGFNVKFTF,not soluble
16,AHHHHHHGSKKKYKKVVVGGTFDRLHLGHKALLRKAFEVGEIVYIGLTSDEMIKEKQYSERILPYEKRLLDLIKFLEVNKYRNYRIMKIHNAIGFTTKIKSLEAIVVSEETYKGAVLVNKAREELGLRPLDIVVIPIIRSRLGCKISSSLIRAGLIDPFGNPIRREEK,not soluble
17,MGSDKIHHHHHHMAFVGFKKSGKTTTIEKVARVLKEKGYRVAIVKSMHSEFDRPGTDTWKFSRIADSVLVHAKDTDALLFKAKDINALFSMISSDVVLIEGFKSIKHVPKVICARSEDEVRELNDGLAIAVSGVIASQGVKEVDGLPVIDGTREPEKLAELVLKRGFMLPNIDCGLCGFNCEQMAKLIVKGEKSVNDCVVLSSRPKVIIKIDGQPLYLKDWVQELVEKTIKGMLSAMKGYREGKRIEIIING,not soluble
18,MGSDKIHHHHHHMMFVVNRHINYTDICVAKCPLCAFNNREGYLLSPEEILRKVREVDGITEVHIVGGHNPEVGVEYFEEVFRRIKREKPEVVIKALTATEVYYYAKKEKMSIREFLSRLKDAGLQAMPGGGAEILVDSVRRKISPNKCSSDEWLRVMKIAHELGIKSNATMLFGHVEEIRHRAIHLYRLRKLQEKTGGFVSFIPLVYHPENNPLGKIVREKTNPVDILKTIAVSRIALDNFRSVRAYWVMLGEKLTEVALRFGANDIDGTVVEEKVTHAAGAETPAGLTVERLVEICRSAGKRVGQRDTFCNILKWYA,not soluble
